{"source": "paper PMC5871787", "key": {"[1]": {"target": "M3 peptide (complementary 11th β-strand peptide of split GFP)", "experiment": "other fluorescence titration; fluorescence complementation kinetics, pseudo-first order: 0.1 µM M3 peptide with 0.1–30 µM total sFP, TN buffer pH 8.0 with 1 mM DTT, 5 mM EDTA, 0.05% CHAPS, 25 °C, 14 hours; kobs1 against the concentration of sFP monomers fitted by a line; binding irreversible"}, "[2]": {"target": "sGFPori (sGFP 1–10 OPT), recombinant", "experiment": "SEC; size-exclusion HPLC of purified, non-complemented sFPs at high concentration; sGFP2 (ReAsH-labelled) at 20 µM, concentrations of the other sFPs not stated"}, "[3]": {"target": "sGFPori (sGFP 1–10 OPT), recombinant", "experiment": "fluorescence polarisation; steady-state fluorescence anisotropy of ReAsH-labelled sFP at 20, 10, 5, 2.5, 1.25 and 0.5 µM, after equilibrium at RT, triplicate; apparent equilibrium constant of dimer formation (monomers to dimer)"}}, "data": [{"substance": "sGFPori (sGFP 1–10 OPT), recombinant (domain or fragment)", "values": [{"measurement": "kon", "setting": "[1]", "result": 70, "unit": "M⁻¹ s⁻¹"}, {"measurement": "stoichiometry N", "setting": "[2]", "result": 2}, {"measurement": "Ka", "setting": "[3]", "result": 320000, "unit": "M⁻¹"}]}]}
